Laboratory results as given in PMC9937993, “Structures of the NDP-pyranose mutase belonging to glycosyltransferase family 75 reveal residues important for Mn^2+ coordination and substrate binding” (The Journal of Biological Chemistry, 2023).

What was measured:
[1] = biological target: MtdL wildtype, His6-tagged (Marinactinospora thermotolerans SCSIO 00652); assay: SEC-MALS; static light scattering (SLC): Superdex 200 Increase column on an Akta Pure L system, on-line eight-angle static light scattering detector (DAWN HELEOS II) and differential refractive index detector; molar masses by ASTRA 7.0.1
[2] = biological target: MtdL E341K mutant (Marinactinospora thermotolerans SCSIO 00652); assay: as above

Row | Substance | stoichiometry N [1] | stoichiometry N [2]
1 | MtdL wildtype, His6-tagged (enzyme) | 4 | –
2 | MtdL E341K mutant (enzyme) | – | 2
